Measurements as given in the DeepSol protein solubility set.

Experiment: soluble on expression in E. coli; label from the status in PepcDB or PDB records

Sequence | soluble on expression in E. coli
MSLSKASLQEMAVKYIAEQIGEHDSEQIHLSALPLDSRIPDRACSTTPDIISSSEPPFNRQITIQVKCDDPQSWAQYVHIKVLKMAPVVVTTDNIARGEVITSAHITVEMKPTHFVRVQYQDDPKALIGSRSKRNIREGMPILLNQICMVCKGDAINIYASTKGLQIKTTGVALEDGTLGEQILVENKKTGKVLNARVDGVESVQVNIEGHHHHHH | not soluble
MSLRIYFDKILERASPKVERQALTHVERLAMVRRHGDFSLAYSTAVQQKLSYFGDADGYIAFGTKMKHHFALGDPVAAPARRPDFIKRFVETAGDPWFVQISEETARVLAGLGYKVNRLGIDTSLVLSEHDFSGKRNETVRYSERWLLKKGFSFEEDKRTVFLDEIARLSENWRGDRIVKRWEMGFLNRPFYDQLGTDMRRFVLHGPDGELIALLDFDPLFRDGKVIGYTTAFKRKHIDASPHAEIGLTKFAVDRFREEGISVVTLGLSPLVDVTPSGFAESDFWRNTFQRAYASPWVNRRRFNLQGQAAFKRRFHGKEEPVYIAFRKGTYVEMLGLLRLVKAIEGHHHHHH | not soluble
MSLTIIHPLLASRSAPNYRQSWRLAGVWRRAINLMTESGELLTLHRQGSGFGPGGWVLRRAQFDALCGGLCGNERPQVVAQGIRLGRFTVKQPQRYYLLRITPPAHPQALAVAWMQRAEETGLFGPLALAASDPLPAELRQFRHCFQAALNGVKTDWRHWLGKGPGLTPSHDDTLSGMLLAAWYYGALDARSGRPFFACSDNLQLVTTAVSVSYLRYAAQGYFASPLLHFVHALSCPKRTAAAIDSLLALGHTSGADTLLGFWLGQQLLQGKEGHHHHHH | soluble
MAHHHHHHMLANYDYESDLRGRTDELGRAQHVDAYDKHPTFLESPYAGQEDLLRDAPQSYMDGPPPGYGGHDAYEHVDMNGGGYDLPLQPQAQTQAVDTRRLSKDRLARGGLNIFSWSTDAPTLNHPREVRERDCAELQRLRPVDSAAQRDKEVREKFEGNTQSRFLCFSESDSPGKRRGVRVFNPNNKNGNLNSGTGHENPIQNRFNEEPQPFKIRQQQPRPLPQQNLPPAGRATHSNRQESGGIPGFAGMGEGRQHNARRGRGSYRG | soluble
MSNLRIAYDRLRSMSRTEENPTVQAMQIALHIPKNDPPARSEILQAAAQAVVACCLSEESVTDEWYGNRLQQWYDHRIRKVARRGRNAAWERVTTLPGVSSVSGSAEARAFVPGPVDSVDPLLKKLQISHTDVPFDSPADPTEGPVLYVDRGLGMSVGKTAAQVGHGSMLLAAAQPFEWVERWADQGYRLSVREVDSEVFRKAAEQPGAVHVIDAGFTEVAPSSLTVVALPMLLF | not soluble
MGSDKIHHHHHHMSRALAKPEIITELSFEEIRAAVLTHLKELLPEYTFLESDPAVKVIEAFSYRELLLRQRINEAARNNILDFATGESLDALGNWHGIARIEGESDERYRERVQLHARGGNGSGTEPYYKLIALTADSRVKDAIIYRKGKDPTIYVAIFGNNEEGTASEDLLQTVSQALHRKNIIMTNDTIIVHAAVKKVLDLEADVWLLPEASLKILTTMEANLRTAWKQEQAIGRELSLSWWVSKLMIPGVQKVIAIAPTKDSVVCDEEILSIGKITLNFKGRAR | not soluble
MVKAGKKVKGASKVRENETEEEKKIRLEMEALAADEAERKAQEAARVALRERQLREQRYAHLNGIKIHNQWRKIMRMAKVEELRREIEILSQNHEREVDRKDAIMQMLDRDLEEAEEQYSLAVRSHMLVVDNLLDLQYQRMRALEAEFAADLKALEDEFETERTEIVNAHTRQRKDMGDMIAAMEGEFADAEAELRQEYEAQREEIKNRNSEEYNVLKIQLEGIIEELEKSFELAHRAYLESTEHRTNTFRTLTKDDAKAALKIERQMRKLVRLQEALQHWRTKIATNGREWEERNRALRNEKEIMARHYAKLKSSMDAFRAGQAERLKQLSLASSGAMETLRGKLAVAENVLKLAELARKYETEQEKVLPFWNPAQAVPSGEQGDEEAAAQAEAEAAALEPSVAELGELGLRASMPEDSSKEAPGPSKSSAGPGKPKFSSYGLDPSSGSEVDEWDYLNCFFRRYNKALLDKTAIDKEKSRLERENADLRSILKQYLDGISVNDDVLNNPVNPLLVVNNRLQITLTERNKARAAAMAQRAAAATGAGLSVTGQGAGGGGQKQLVEVQVVSRVS | not soluble
MEYGCQPNVLKKTILKMVKRRIHVEGAKKAVNEALLNSQAKAAEEICRIAYESPGGVVFLGAPTGAGKTEVFMAPLLASFASKRPIAARGFLVEPMHSLIKAMVDRLKTSIETLGVSEDHGETVQPTFLYTAPITVTTPDTYFYGFAASRVYRILTHEGVETGRFSMPVGLQATSYTVFDEAHLVQDEVFLSPRLLSLVVAALARAGGLIVVSSATLPSYYKTVIREKLGDWRVEEV | not soluble
FQGAMSSSIDISKINSWNKEFQSDLTHQLATTVLKNYNADDALLNKTRLQKQDNRVFNTVVSTDSTPVTNQKSSGRCWLFAATNQLRLNVLSELNLKEFELSQAYLFFYDKLEKANYFLDQIVSSADQDIDSRLVQYLLAAPTEDGGQYSMFLNLVKKYGLIPKDLYGDLPYSTTASRKWNSLLTTKLREFAETLRTALKERSADDSIIVTLREQMQREIFRLMSLFMDIPPVQPNEQFTWEYVDKDKKIHTIKSTPLEFASKYAKLDPSTPVSLINDPRHPYGKLIKIDRLGNVLGGDAVIYLNVDNETLSKLVVKRLQNNKAVFFGSHTPKFMDKKTGVMDIELWNYPAIGYNLPQQKASRIRYHESLMTHAMLITGCHVDETSKLPLRYRVEVSWGKDSGKDGLYVMTQKYFEEYCFQIVVDINELPKELASKFTSGKEEPIVLPIWDPMGALA | soluble
MALALSLSACSPPLRRTRRAGFRTSCSIFANPAQRAKRKLLELISEEDRGLRTQKDPKKRDEIVNAIESMTVIGRSSITTDDSLSATWRLLWTTEKEQLFIIEKAGLFGTTAGDVLQVIDVNKRILNNVITFPPDGVFFVRSDIDIASPQRVNFRFNSAVLRGKNWELPLPPFGKGWFENVYMDGEIRVAKDIRGDYLIVDRAPYNWTESFV | soluble
MFLKVRAEKRLGNFRLNVDFEMGRDYCVLLGPTGAGKSVFLELIAGIVKPDRGEVRLNGADITPLPPERRGIGFVPQDYALFPHLSVYRNIAYGLRNVERVERDRRVREMAEKLGIAHLLDRKPARLSGGERQRVALARALVIQPRLLLLDEPLSAVDLKTKGVLMEELRFVQREFDVPILHVTHDLIEAAMLADEVAVMLNGRIVEKGKLKELFSAKNGEVAEFLSARNLLLKVSKILD | soluble
PQEEVVRLHASSGTTGKPTVVGYTQNDIDTWANVVARSIRAAGGRKGDKVHVSYGYGLFTGGLGAHYGAERLGCTVIPMSGGQTEKQVQLIRDFHPDIIMVTPSYMLNLADEIERQGIDPHDLKLRLGIFGAEPWTDELRRSIEQRMGINALDIYGLSEIMGPGVAMECIETKDGPTI | not soluble
MPANKAKYKIIKQQVKNNILSARYKIGDRLPTESDFMAEFDVSRFTIRRAIDELVNENFVRRVQGNGMYIKDWHKVNKADEDLRTIAVITTHVADYIFPNIINAIDKVISDAGYSLILANTHNDPKRERDNLLRLLKLKPSAWIIEPTQSAVNRENLDLYQQIKKLDVPAVFINSSYPGIGFPCLKTDDRGSLSELTNYLFSIGHRRIMGVFQIDDIQGVERMKGFADAYLGHPYFSDRQTTIMYKSTDDYDEIFTRITNFYKNQTVDKPDAIICYNDQLAIALIDNLKEQGWKIPEDISIIGFDDYNISRYITPTLTTLSHPKSQMGRDAGKMILNLIDNKAVKSITYYPELVLRKSVMPI | not soluble
MGSDKIHHHHHHMFIETLNLSHFRNFSEVALSPSPKINIITGDNGSGKTSLLEAIYLLGFGRSFRPGGFRQLIKEGNSGFTVFCRSQDYAIGVRRSTDGEQSLRLNGANVQRMSDVARLVPVQLLTPESVDILLEGPGQRRQFIDWGVFHVEHSFYSDWVAYTQLLKQRNSLLKQRSLPVREDRYWKEQLAYYGERISKSREKYLEELNDYIQELAKSFLSDVTMEVRLKSGWDTSQSLFDALESHTEKDKKYGFTSVGAHKADIKVIADGVEVKHRLSRGQLKTAITALKLAQGKHYQKIKRQPCIYLVDDLTSELDSKNQALLCRELENLDAQVFITAITGKQLSDKFQKSPRMFHVEHGVINE | not soluble
MSLKRKYEDHFKEQAVRLSFERGEISSVERELGINRTSLGKWRKKYEHLKLAPKDAVIIELNKKIKDSLLTLEILKNGSEFAAQGKVMTKRFIENNSSKYPIGKMCALLQISQRAYYKLKKKEISDKQSQIILLKEEVAAVYYEFKKTYGYRKIAKVLQCRGFKVGESQIRIYMNALGLRRRAKSRFTITTDSVHNHYIAQNILNREFTINQPAKAWVSDITYIAAEKGFLYLTIVLDLFDRKIIGWSLADSMSTKETTLPAWEMAVKNRNITQDLIFHSDRGVQYANKIFTETLDSYKFVRRSMSRKQNHNDNAVSESFFGNLKRELINGNKPLPREQMRVQVYQYIENWYNKKRRHSYLNYRTIEEFDKLHEGHHHHHH | not soluble
MAHHHHHHMVMSQRIAYVTGGMGGIGTSICQRLHKDGFRVVAGCGPNSPRRVKWLEDQKALGFDFYASEGNVGDWDSTKQAFDKVKAEVGEIDVLVNNAGITRDVVFRKMTREDWQAVIDTNLTSLFNVTKQVIDGMVERGWGRIINISSVNGQKGQFGQTNYSTAKAGIHGFTMSLAQEVATKGVTVNTVSPGYIGTDMVKAIRPDVLEKIVATIPVRRLGSPDEIGSIVAWLASEESGFSTGADFSLNGGLHMG | soluble
AGVNDDMPLKECYRTMWLNIWNLAGSNLNAISNRVQYDSLPCTTRNKTWELERKMFAQVDRLFNQGKEEGVFKPLDNEVLSGLSFEASVALARKHALGFYQLDDDALEAAIEASWDAIIKH | not soluble
MSLSNDIELTIDIELQSYLTSLFEGNAGAAIIMNVNDGSILAAGSFPEYDLNPFVTGISFKDWDELSNSLDHPFTNKLINGYYPPGSVVKMGVGLSFLNSKNISPSTHYVCNGSIELGGRFFRCWNRSGHGPVDLKHAIKYSCDVYFYNGSLQVGIDQISETLSRIGFGVKTGVDLPSEFVGTLPSKEWKMQRYRQSWFQGDTLNTAIGQGNFLATPMQIARYTAQIAKSGEVIPHFLKSIENNNTTIENQMDENKKEIFTLFEKSQLPYIRDAMYAVANEQGGTSYRYLHNLDVKVAAKTGTAQVVGFSQTDKNRVDEKQFEYYTRSHAWLTSYAPYSKPKYVVTVLLEHGGRNITSGATVAKIYQKMIELGYFKEGHHHHHH | not soluble
MGSDKIHHHHHHMTENNGFQQHVAKVYREHRGERIVPFEYQGKRYWLKQVEHLAGAMRLLKQNSTAALHKEIGILNTLSHIGAPVPAVVDYGDGYMVVEDVGNTINHLLDHTSQALWQPILNDVSVALAKLHSMQLAHGRPALRDISWQAGEVKFIDFEANQQHKSVVSQQVRDVLVFIHSLYRYIGPNNRMINQAIACYRLAGGEAIWQKAKQFLASWQWLYYFARPFRDFGGKDLKPVYWVLWHFRQAPLTLA | not soluble
GMDDLTNLAARLRLLEDREEIRELIARYGPLADSGDAEALSELWVEDGEYAVVGFATAKGRAAIAALIDGQTHRALMADGCAHFLGPATVTVEGDTATARCHSVVFRCVSGTFGSHRVSANRWTFRRTPAGWRAVRRENALLDGSAAARALLQFR | soluble
GPTTPVPVSGSLEVKVNDWGSGAEYDVTLNLDGQYDWTVKVKLAPGATVGSFWSANKQEGNGYVIFTPVSWNKGPTATFGFIVNGPQGDKVEEITLEINGQVI | soluble
MGSDKIHHHHHHMSDVYIFCLSMGSPTLNTRVLTNSMELKVGCCGFPVSMKRYFETFDVVEVQKTFYKPPEVKTAEKWRKSAPEDFEFTIKAWQVITHPPSSPTYKKAGIKFENCGFFRPTEVVFMAWEETKKIAKALKAEIIVFQTPKSFRDTAENMENMRAFFSSIDGSFTFCFEPRGWSEESVRAICEELDLVHVVDPFVSKQLYGEICYYRLHGFDYKHKYTDDELEKLLGIVDRDGYVMFNNVHMFDDALRFKKLVEREAKSK | not soluble
